Test results from paper PMC6900541 (Proceedings of the National Academy of Sciences of the …, 2019).

Biological target: T1, human PD-L2 ectodomain (human, UniProt Q9BQ51 20-220)
T1 sequence: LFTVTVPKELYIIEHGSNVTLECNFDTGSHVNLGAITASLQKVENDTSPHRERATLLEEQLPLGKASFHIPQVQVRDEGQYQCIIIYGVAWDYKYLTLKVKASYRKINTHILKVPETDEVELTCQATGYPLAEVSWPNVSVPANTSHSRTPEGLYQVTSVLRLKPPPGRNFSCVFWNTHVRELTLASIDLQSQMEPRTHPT
Experiment: BLI

B1: human PD-1 triple mutant (N74G T76P A132V), PD-1-Fc (Fc fusion)
chain: LDSPDRPWNPPTFSPALLVVTEGDNATFTCSFSNTSESFVLNWYRMSPSGQPDKLAAFPEDRSQPGQDCRFRVTQLPNGRDFHMSVVRARRNDSGTYLCGAISLAPKVQIKESLRAELRVTERRAEVPTAHPSPSPRPAGQFQTLV
- Kd: 2.6 nM
